Like-named read-outs stand apart in the source and are kept apart here.
Legend:
Assay in all cases: cell-based or functional assay
[1] = biological target: Receptor for Advanced Glycation Endproducts (RAGE), human, full length (human) (UniProt Q15109)
[2] = biological target: Receptor for Advanced Glycation Endproducts (RAGE), human, full length (human) (UniProt Q15109); remark: listed apart in the source
[3] = biological target: Receptor for Advanced Glycation Endproducts (RAGE), human, full length (human) (UniProt Q15109); remark: listed apart in the source

Sequence of UniProt Q15109 (Q15109 23-404 limits assumed): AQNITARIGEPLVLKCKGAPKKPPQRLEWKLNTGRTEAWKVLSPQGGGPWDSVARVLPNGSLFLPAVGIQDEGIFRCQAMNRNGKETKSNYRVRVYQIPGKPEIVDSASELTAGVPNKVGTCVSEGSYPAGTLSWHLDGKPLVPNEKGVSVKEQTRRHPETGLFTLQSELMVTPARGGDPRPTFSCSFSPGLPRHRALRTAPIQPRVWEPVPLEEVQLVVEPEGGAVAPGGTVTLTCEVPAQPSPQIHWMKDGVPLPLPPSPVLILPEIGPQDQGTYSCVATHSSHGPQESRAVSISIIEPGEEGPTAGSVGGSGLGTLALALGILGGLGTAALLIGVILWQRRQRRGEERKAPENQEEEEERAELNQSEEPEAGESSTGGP

| Substance | IC50, cell viability, TOV112D ovarian cancer cells, 24 h [1] | IC50, cell viability, HEC1A endometrial cancer cells, 24 h [2] | IC50, cell viability, HEC1A endometrial cancer cells, 48 h [2] | IC50, cell viability, HEC1A endometrial cancer cells, 96 h [2] | IC50, cell viability, HEC1B endometrial cancer cells, 48 h [2] | IC50, cell viability, HEC1B endometrial cancer cells, 96 h [2] | IC50, cell viability, HEC50 endometrial cancer cells, 48 h [2] | IC50, cell viability, HEC50 endometrial cancer cells, 96 h [2] | IC50, cell viability, Ishikawa endometrial cancer cells, 24 h [2] | IC50, cell viability, Ishikawa endometrial cancer cells, 48 h [2] | IC50, cell viability, Ishikawa endometrial cancer cells, 96 h [2] | IC50, cell viability, TOV112D ovarian cancer cells, 48 h [2] | IC50, cell viability, TOV112D ovarian cancer cells, 96 h [2] | IC50, cell viability, healthy endometrial cells, 48 h [2] | IC50, cell viability, healthy endometrial cells, 96 h [2] | IC50, cell viability, healthy ovarian cells, 96 h [2] | other results |
| --- | --- | --- | --- | --- | --- | --- | --- | --- | --- | --- | --- | --- | --- | --- | --- | --- | --- |
| SNIPER-MMAE (MAB11451 conjugated with vcMMAE) (antibody) | 16.7 µg/mL | 10.3 µg/mL | 4.69 µg/mL | 1.02 µg/mL | 8.65 µg/mL | 5.67 µg/mL | 7.64 µg/mL | 2.18 µg/mL | 31 µg/mL | 9.54 µg/mL | 3.86 µg/mL | 16.2 µg/mL | 0.54 µg/mL | 10.7 µg/mL | 15.2 µg/mL | 41 µg/mL | IC50, cell viability, HEC1B endometrial cancer cells, 24 h [2]: 29 µg/mL; IC50, cell viability, TOV112D ovarian cancer cells, 24 h [2]: 22.6 µg/mL |
| SNIPER-MMAF (MAB11451 conjugated with mcMMAF) (antibody) | 2.5 µg/mL | 24.1 µg/mL | 0.81 µg/mL | 0.74 µg/mL | 1.96 µg/mL | 1.27 µg/mL | 0.86 µg/mL | 0.94 µg/mL | 16.7 µg/mL | 6.48 µg/mL | 2.42 µg/mL | 2.51 µg/mL | 0.59 µg/mL | 7.25 µg/mL | 4.17 µg/mL | 4.87 µg/mL | IC50, cell viability, Ishikawa endometrial cancer cells, 24 h [3]: 16.7 µg/mL; IC50, cell viability, HEC50 endometrial cancer cells, 24 h [2]: 17.8 µg/mL; IC50, cell viability, healthy ovarian cells, 48 h [2]: 14.4 µg/mL |

— patent publication US20200055934A1
